Results published in IntAct's records for PubMed 17161399.

B1: Protein VAC14 homolog (Homo sapiens), Q08AM6 (parent)
chain: MNPEKDFAPLTPNIVRALNDKLYEKRKVAALEIEKLVREFVAQNNTVQIKHVIQTLSQEFALSQHPHSRKGGLIGLAACSIALGKDSGLYLKELIEPVLTCFNDADSRLRYYACEALYNIVKVARGAVLPHFNVLFDGLSKLAADPDPNVKSGSELLDRLLKDIVTESNKFDLVSFIPLLRERIYSNNQYARQFIISWILVLESVPDINLLDYLPEILDGLFQILGDNGKEIRKMCEVVLGEFLKEIKKNPSSVKFAEMANILVIHCQTTDDLIQLTAMCWMREFIQLAGRVMLPYSSGILTAVLPCLAYDDRKKSIKEVANVCNQSLMKLVTPEDDELDELRPGQRQAEPTPDDALPKQEGTASGGPDGSCDSSFSSGISVFTAASTERAPVTLHLDGIVQVLNCHLSDTAIGMMTRIAVLKWLYHLYIKTPRKMFRHTDSLFPILLQTLSDESDEVILKDLEVLAEIASSPAGQTDDPGPLDGPDLQASHSELQVPTPGRAGLLNTSGTKGLECSPSTPTMNSYFYKFMINLLKRFSSERKLLEVRGPFIIRQLCLLLNAENIFHSMADILLREEDLKFASTMVHALNTILLTSTELFQLRNQLKDLKTLESQNLFCCLYRSWCHNPVTTVSLCFLTQNYRHAYDLIQKFGDLEVTVDFLAEVDKLVQLIECPIFTYLRLQLLDVKNNPYLIKALYGLLMLLPQSSAFQLLSHRLQCVPNPELLQTEDSLKAAPKSQKADSPSIDYAELLQHFEKVQNKHLEVRHQRSGRGDHLDRRVVL

Variants of: B1
Conditions: with nos1_human NOS1, P29475
nos1_human NOS1, P29475, sequence (P29475 whole entry): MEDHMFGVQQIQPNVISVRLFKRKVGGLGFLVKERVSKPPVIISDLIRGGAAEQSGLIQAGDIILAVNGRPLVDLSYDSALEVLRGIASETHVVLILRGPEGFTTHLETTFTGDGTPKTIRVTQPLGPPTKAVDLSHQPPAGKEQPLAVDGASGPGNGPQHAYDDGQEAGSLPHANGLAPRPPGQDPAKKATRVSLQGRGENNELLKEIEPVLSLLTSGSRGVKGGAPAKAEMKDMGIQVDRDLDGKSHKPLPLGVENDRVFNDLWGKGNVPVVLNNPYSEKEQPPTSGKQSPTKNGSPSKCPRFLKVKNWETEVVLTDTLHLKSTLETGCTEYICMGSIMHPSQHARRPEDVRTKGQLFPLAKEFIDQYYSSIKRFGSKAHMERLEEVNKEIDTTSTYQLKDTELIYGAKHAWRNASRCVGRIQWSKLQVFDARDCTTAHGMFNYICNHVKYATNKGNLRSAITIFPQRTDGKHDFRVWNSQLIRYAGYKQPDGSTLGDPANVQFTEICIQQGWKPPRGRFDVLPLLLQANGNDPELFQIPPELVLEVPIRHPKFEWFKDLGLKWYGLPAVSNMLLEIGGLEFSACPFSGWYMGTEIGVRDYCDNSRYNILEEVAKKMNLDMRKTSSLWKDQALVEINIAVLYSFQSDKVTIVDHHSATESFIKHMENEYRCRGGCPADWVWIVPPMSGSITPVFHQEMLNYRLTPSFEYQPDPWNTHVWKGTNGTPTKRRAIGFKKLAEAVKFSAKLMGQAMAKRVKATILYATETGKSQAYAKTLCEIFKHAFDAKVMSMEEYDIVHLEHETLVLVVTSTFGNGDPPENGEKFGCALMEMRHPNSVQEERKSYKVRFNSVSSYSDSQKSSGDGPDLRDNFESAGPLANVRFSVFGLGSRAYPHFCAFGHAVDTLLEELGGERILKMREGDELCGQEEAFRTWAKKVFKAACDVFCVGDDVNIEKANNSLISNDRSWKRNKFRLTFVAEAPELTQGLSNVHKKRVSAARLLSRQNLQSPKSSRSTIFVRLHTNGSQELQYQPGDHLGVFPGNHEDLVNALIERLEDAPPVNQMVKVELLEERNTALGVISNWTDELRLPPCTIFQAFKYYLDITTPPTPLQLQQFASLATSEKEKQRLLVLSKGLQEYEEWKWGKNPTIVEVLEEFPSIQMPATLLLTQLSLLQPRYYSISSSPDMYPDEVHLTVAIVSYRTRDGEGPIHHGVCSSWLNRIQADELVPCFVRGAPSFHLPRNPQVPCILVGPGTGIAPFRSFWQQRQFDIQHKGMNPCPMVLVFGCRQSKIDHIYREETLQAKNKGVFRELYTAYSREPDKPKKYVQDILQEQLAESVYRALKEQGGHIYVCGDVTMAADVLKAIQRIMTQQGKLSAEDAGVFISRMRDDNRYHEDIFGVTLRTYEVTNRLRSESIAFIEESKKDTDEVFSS

Variant	effect of a mutation on the interaction
G773A	decreasing interaction
L776A	disrupting interaction
D774A	disrupting interaction

Variants of: B1
Conditions: with nos1_human NOS1, P29475
Remark: another data set of the same source

Variant	effect of a mutation on the interaction
D777A	disrupting interaction
